Target: Groundnut bud necrosis virus nucleocapsid (N) protein, full-length, hexa-histidine-tagged (Groundnut bud necrosis virus, strain GBNV-To(K))
Experiment: SEC

Substance: Groundnut bud necrosis virus nucleocapsid (N) protein, full-length, hexa-histidine-tagged (natural protein)
- stoichiometry N: 4

From publication PMC7086702
